According to article PMC7946950:
Where two headings read alike, the source gives them in different places.

What was measured:
[1] = target: Coagulation Factor XIa (human) (UniProt P03951); assay: kinetics of protease inhibition (second order rate constant k2, discontinuous method, residual protease activity); protease 5-75 nM, at least 10:1 molar ratio of AAT variant to protease (pseudo-first order), 37 °C, PPNE buffer (20 mM sodium phosphate pH 7.4, 100 mM NaCl, 0.1 mM EDTA, 0.1% polyethylene glycol 8000)
[2] = target: Coagulation Factor XIa (human) (UniProt P03951); assay: stoichiometry of inhibition (SI) titration, residual FXIa activity; varying ratios of AAT variant to FXIa incubated at ambient temperature for 2 h; residual FXIa activity determined at 37 °C; regression to zero activity
Factor XIIa (human) = assay: kinetics of protease inhibition (second order rate constant k2, discontinuous method, residual protease activity); protease 5-75 nM, at least 10:1 molar ratio of AAT variant to protease (pseudo-first order), 37 °C, PPNE buffer (20 mM sodium phosphate pH 7.4, 100 mM NaCl, 0.1 mM EDTA, 0.1% polyethylene glycol 8000)
kallikrein (human) = assay: as above
Factor Xa (human) = assay: as above
[3] = target: Activated Protein C (human); assay: as above
thrombin (human) [4] = assay: as above
[5] = target: Coagulation Factor XIa (human) (UniProt P03951); assay: as above; remark: listed apart in the source
thrombin (human) [6] = assay: as above; remark: listed apart in the source
[7] = target: Coagulation Factor XIa (human) (UniProt P03951); assay: as above; remark: listed apart in the source

Row | Sequence | k2 (second order rate constant of inhibition) [1] | stoichiometry of inhibition (SI) [2] | k2 (second order rate constant of inhibition) [5] [M⁻¹ s⁻¹] | further results
1 | AAT M358R/PRSTE, from the pBAD P2'/P3' bacterial expression library (designed binder) | 45000 | – | – | –
2 | AAT M358R (alpha-1 antitrypsin M358R), cleavable GST fusion system (natural protein) | 170000 M⁻¹ s⁻¹ | 2.1 | 160000 | k2 (second order rate constant of inhibition) (Factor XIIa (human)): 23000 M⁻¹ s⁻¹; k2 (second order rate constant of inhibition) (kallikrein (human)): 40000 M⁻¹ s⁻¹; k2 (second order rate constant of inhibition) (Factor Xa (human)): 35000 M⁻¹ s⁻¹; k2 (second order rate constant of inhibition) [3]: 40000 M⁻¹ s⁻¹; k2 (second order rate constant of inhibition) (thrombin (human) [4]): 210000 M⁻¹ s⁻¹
3 | AAT M358R/PRSLD, from the pBAD P2'/P3' bacterial expression library (designed binder) | 38000 | – | – | –
4 | AAT M358R/HASTGQ, cleavable GST fusion system (designed binder) | – | 12.7 | 34000 | –
5 | AAT M358R/QSIIS, arabinose-inducible system (designed binder) | – | – | – | k2 (second order rate constant of inhibition) (thrombin (human) [6]): 100000 M⁻¹ s⁻¹
6 | AAT M358R (alpha-1 antitrypsin M358R), arabinose-inducible system (natural protein) | 180000 M⁻¹ s⁻¹ | – | – | k2 (second order rate constant of inhibition) (thrombin (human) [6]): 160000 M⁻¹ s⁻¹; k2 (second order rate constant of inhibition) [7]: 190000 M⁻¹ s⁻¹
7 | AAT M358R/PRSTE, cleavable GST fusion system (designed binder) | – | 3.3 | 41000 | k2 (second order rate constant of inhibition) (thrombin (human) [4]): 1200 M⁻¹ s⁻¹
